How the values were obtained:
Assay in all cases: purified protein
Conditions in all cases: pH 9.0, 30 °C, free enzyme, ammonium needed as activator
[1] = substrate: CCO
[2] = substrate: CO; format: biochemical, Methylorubrum extorquens
[3] = substrate: CCCCO; format: biochemical, Methylorubrum extorquens
[4] = substrate: CCCCCO; format: biochemical, Methylorubrum extorquens

B1: MDH-His6-tag (recombinant PQQ-dependent methanol dehydrogenase, PQQ-MDH) (Methylorubrum extorquens AM1) (protein)
chain: NDKLVELSKSDDNWVMPGKNYDSNNFSDLKQINKGNVKQLRPAWTFSTGLLNGHEGAPLVVDGKMYIHTSFPNNTFALGLDDPGTILWQDKPKQNPAARAVACCDLVNRGLAYWPGDGKTPALILKTQLDGNVAALNAETGETVWKVENSDIKVGSTLTIAPYVVKDKVIIGSSGAELGVRGYLTAYDVKTGEQVWRAYATGPDKDLLLASDFNIKNPHYGQKGLGTGTWEGDAWKIGGGTNWGWYAYDPGTNLIYFGTGNPAPWNETMRPGDNKWTMTIFGRDADTGEAKFGYQKTPHDEWDYAGVNVMMLSEQKDKDGKARKLLTHPDRNGIVYTLDRTDGALVSANKLDDTVNVFKSVDLKTGQPVRDPEYGTRMDHLAKDICPSAMGYHNQGHDSYDPKRELFFMGINHICMDWEPFMLPYRAGQFFVGATLNMYPGPKGDRQNYEGLGQIKAYNAITGDYKWEKMERFAVWGGTMATAGDLVFYGTLDGYLKARDSDTGDLLWKFKIPSGAIGYPMTYTHKGTQYVAIYYGVGGWPGVGLVFDLADPTAGLGAVGAFKKLANYTQMGGGVVVFSLDGKGPYDDPNVGEWKSAAK
notes: full-length mxaF ORF with leader peptide and C-terminal His6 tag, expressed from pCM160 in M. extorquens AM1; small subunit co-purified from host; Ni-NTA; PQQ and Ca2+; with Methanol dehydrogenase [cytochrome c] subunit 2
B1 was tested, and the Km [1] was 610 ± 60 µM, the Vmax [1] was 2.9 µmol/min/mg and the Km [2] was 360 ± 70 µM. The Vmax [2] was 4.2 µmol/min/mg, the Km [3] was 1900 ± 200 µM and the Vmax [3] was 2.7 µmol/min/mg. The Km [4] was 1400 ± 100 µM and the Vmax [4] was 2.8 µmol/min/mg.

Source: publication PMC9499683, “Isolation and Characterization of Homologically Expressed Methanol Dehydrogenase from Methylorubrum extorquens AM1 for the Development of Bioelectrocatalytical Systems” (International Journal of Molecular Sciences, 2022)
